Experimental findings from patent US20160200813A1 are described below.

Experiment [1] has as its target Cynomolgus monkey LRP-8 expressed on HEK293 cells (cynomolgus monkey). In words: FACS, cyno LRP8 cells. (A flow cytometer gives signals particle by particle.)
For experiment [2], the target named is Mouse LRP-8 expressed on HEK293 cells (mouse) (UniProt Q924X6). Nature of the experiment: FACS, mouse LRP8 cells.
Experiment [3] concerns the target CR1 cyclic peptide of human LRP-8 (human). In words: ELISA using CR1 peptide.

Take “Negative IgG control (Table 20) (antibody)”: the FACS (ratio +/-) came out at 0.8 in experiment [1] and 1 in experiment [2]. Further, in experiment [3], the OD450 is 0.08 OD450.
